The source of these data is PMC9374335, “C11orf94/Frey is a key regulator for male fertility by controlling Izumo1 complex assembly” (Science Advances, 2022).

The experiment deals with T1, Izumo1-3xFLAG (mouse, UniProt Q9D9J7 22-397).
T1 construct: Izumo sperm-egg fusion protein 1, mouse; open reading frame amplified from murine testis cDNA; source: HEK293T, transfected, in lysate (CHAPSO); not shown: 3xFLAG, C-terminal, kept
T1 sequence (looked up): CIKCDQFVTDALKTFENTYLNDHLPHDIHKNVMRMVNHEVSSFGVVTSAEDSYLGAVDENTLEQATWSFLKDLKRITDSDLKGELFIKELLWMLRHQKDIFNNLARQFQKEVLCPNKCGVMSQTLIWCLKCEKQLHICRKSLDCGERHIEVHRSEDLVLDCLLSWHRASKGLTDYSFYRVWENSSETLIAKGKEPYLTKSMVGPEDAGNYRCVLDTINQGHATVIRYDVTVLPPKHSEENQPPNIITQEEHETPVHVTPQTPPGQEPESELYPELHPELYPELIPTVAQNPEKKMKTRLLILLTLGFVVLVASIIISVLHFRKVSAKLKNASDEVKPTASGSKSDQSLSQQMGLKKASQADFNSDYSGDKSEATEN
Description: co-IP; CHAPSO lysates of transfected HEK293T cells; 3xFLAG-tagged bait precipitated with anti-FLAG beads; with or without coexpressed C11orf94-3xmyc; Western blot. As to conditions: partners not purified. For orientation: Immunoblotting shows a protein as a band on a membrane.

B1: murine ACE3 equipped with a C-terminal HA-tag (natural protein, mouse, UniProt D0G895 24-737, looked up)
chain: VGETSLNDFYSEAQAKLFLQFYEQTAQVVLNEFMEATWNYVTNITKQNQKNMLQKEADRSQFMLYFSTRARMFRTDHFLNQDVKRMLRKLQNIDKSALPTEDLLEYNRLLTYMETAYNRAEVCLDEGPCLTLEPDLQEIMATSRDQKELLWAWQGWRDAVGRQLRPVFEDYVRLSNKAAQYNGYKDMGALWRSKYESDTLEEDLEQLYKELQPLYLNLHAYVRRSLYRYYGPELIDLRGPIPAHLLGNMWAQSWNNILDLVLPYPTKAPEDITAIMKIQHWRPEKMFEEANLFFTSMGMLPAPPAFWIKSMMEKPADGREVECHTSSWNFYKFNDFRVKKCTEVTLEDLLSVFHQMGHIQYFLQYQNLSVIYQEGASPAFEEAVGSVIALSVSSHKYLLARGLLSQPHQDSEEEVNFLLGIALEKIAFIPFSYLVDKFRWKIFDGTISKITYNQEWWNFRLKYQGLCPPVPRSDDDFDPGAKFHIPANVPYIRYFLGLILQFQLHEALCEASGHVGPLHQCDNYNSKVAGKILGDLLKLGSSRPWREVLQEVTGESNISTKAFLTYFKPLMDWLVTENVKQGDTLGWPDFSCSFEEKITSKVSFLGTDTEPEQAYLGQWVLLSMSFFMLVLILALGFRLHYLEKQLLDEDTMILKTLPYSYFLGIAMEPHQAARKQWLLLGLCCILMLCCIGLLIRIVTQNTENTPWMKNEGQS
notes: Angiotensin-converting enzyme 3 (ACE3), mouse; open reading frame amplified from murine testis cDNA; also called ACE3-HA; angiotensin-converting enzyme 3; source: HEK293T, transiently transfected, in lysate (CHAPSO); not shown: HA, C-terminal, kept
In the case of B1, the “fold change of the co-precipitation in the presence of C11orf94-3xmyc against its absence” value was ~1.7 fold.
